This is an account of results in the supplement of paper PMC7125110.

± gives the standard error. For some assays here: Fewer inactive variants are shown than the library holds.

B1: glmS ribozyme (parent)
chain: AUAAAAGCGCCAGAACUACAGAAAUGUAGUUGACGAGGAGGAGGUUUAUCGAAUUUUCGGCGGAUGCCUCCAAA

What all share (conditions): with glucosamine-6-phosphate
Data set [1] covers variants of B1. Nature of the data set: kcat; higher = faster cleavage; RNA array. The gist of the method:
(§1)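 kobs was derived by fitting per-tile medians to one- or two-exponential decays after normalising signals to baseline and to non-cleaving reference variants. Those signals came from barcoded ribozyme variants transcribed in situ by E. coli RNA polymerase on sequenced MiSeq chips, followed through a hybridised Cy3 probe at 37 °C and imaged over ~14 h. Glucosamine-6-phosphate (40 μM to 10 mM) in HEPES/KCl/Mg(OAc)2 buffer was flowed in. Weighted Michaelis–Menten fits across concentrations then gave kcat and KM.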

Variants of B1 are the subject of data set [2]. Description: KM; higher = weaker cofactor use; RNA array. The gist of the method: as §1
Variants of B1 are the subject of data set [3]. Description: self-cleavage kobs at 40 uM GlcN6P; higher = faster cleavage; RNA array. The gist of the method: as §1
Variants of B1 are the subject of data set [4]. Description: self-cleavage kobs at 160 uM GlcN6P; higher = faster cleavage; RNA array. The essentials: as §1
Variants of B1 are the subject of data set [5]. Nature of the data set: self-cleavage kobs at 640 uM GlcN6P; higher = faster cleavage; RNA array. The essentials:
as §1

Variants of B1 are the subject of data set [6]. Nature of the data set: self-cleavage kobs at 2500 uM GlcN6P; higher = faster cleavage; RNA array. The gist of the method: as §1
Data set [7] covers variants of B1. Nature of the data set: self-cleavage kobs at 10000 uM GlcN6P; higher = faster cleavage; RNA array. The gist of the method: as §1

Usually kcat stands for the maximal rate divided by the concentration of active sites. What is called KM is the substrate concentration at which the rate is half of its maximum. Take A42G C70G: the turnover number (kcat) with glucosamine-6-phosphate [1] worked out at 0.000261 ± 5.1e-05 s⁻¹. Besides, in the data set with glucosamine-6-phosphate [2], the KM was found to be 261 ± 120 µM. Moreover, the “self-cleavage kobs at 40 uM GlcN6P” value with glucosamine-6-phosphate [3] was 4.1e-05 ± 7.7e-06 s⁻¹. Further, in the data set with glucosamine-6-phosphate [4], the “self-cleavage kobs at 160 uM GlcN6P” value was found to be 8.07e-05 ± 1.4e-05 s⁻¹. The “self-cleavage kobs at 640 uM GlcN6P” value with glucosamine-6-phosphate [5] was found to be 0.000216 ± 2.7e-05 s⁻¹. Besides, the “self-cleavage kobs at 2500 uM GlcN6P” value with glucosamine-6-phosphate [6] was determined as 0.000414 ± 6.1e-05 s⁻¹. Moreover, the “self-cleavage kobs at 10000 uM GlcN6P” value in the data set with glucosamine-6-phosphate [7] stood at 0.000223 ± 2.5e-05 s⁻¹.
Turning to C10A C71A, the kcat with glucosamine-6-phosphate [1] was determined as 1.51e-05 ± 2.9e-06 s⁻¹.
For the variant G37A A42U, the kcat with glucosamine-6-phosphate [1] turned out to be 0.000872 ± 0.00012 s⁻¹. In addition, the KM with glucosamine-6-phosphate [2] came out at 2220 ± 480 µM. Moreover, in the data set with glucosamine-6-phosphate [3], the “self-cleavage kobs at 40 uM GlcN6P” value is 2.47e-05 ± 1.1e-05 s⁻¹. For the same variant, the “self-cleavage kobs at 160 uM GlcN6P” value in the data set with glucosamine-6-phosphate [4] came to 5.06e-05 ± 1.2e-05 s⁻¹. The “self-cleavage kobs at 640 uM GlcN6P” value with glucosamine-6-phosphate [5] was 0.000193 ± 2.3e-05 s⁻¹. Besides, in the data set with glucosamine-6-phosphate [6], the “self-cleavage kobs at 2500 uM GlcN6P” value turned out to be 0.00052 ± 6.6e-05 s⁻¹. For the same variant, the “self-cleavage kobs at 10000 uM GlcN6P” value with glucosamine-6-phosphate [7] was found to be 0.000669 ± 9.4e-05 s⁻¹.
In the case of C61G U69C C70G, the turnover number (kcat) with glucosamine-6-phosphate [1] amounted to 5.75e-05 ± 1.9e-05 s⁻¹. Besides, the “self-cleavage kobs at 160 uM GlcN6P” value with glucosamine-6-phosphate [4] worked out at 5.95e-05 ± 2.1e-05 s⁻¹. Moreover, in the data set with glucosamine-6-phosphate [5], the “self-cleavage kobs at 640 uM GlcN6P” value amounted to 6.36e-05 ± 2.5e-05 s⁻¹. In the data set with glucosamine-6-phosphate [6], the “self-cleavage kobs at 2500 uM GlcN6P” value came to 8.71e-05 ± 4.1e-05 s⁻¹.
As to C50A U54G U55C, in the data set with glucosamine-6-phosphate [1], the catalytic constant (kcat) is 1.47e-05 ± 3.9e-06 s⁻¹.
Turning to G59U C67G, the kcat with glucosamine-6-phosphate [1] turned out to be 1.65e-05 ± 6.4e-06 s⁻¹.
As to G32A C67U C71G, the kcat with glucosamine-6-phosphate [1] amounted to 8.98e-05 ± 2.5e-05 s⁻¹. Besides, the “self-cleavage kobs at 40 uM GlcN6P” value in the data set with glucosamine-6-phosphate [3] stood at 5.63e-05 ± 2.5e-05 s⁻¹. Also, in the data set with glucosamine-6-phosphate [4], the “self-cleavage kobs at 160 uM GlcN6P” value is 9.79e-05 ± 2.3e-05 s⁻¹. Further, the “self-cleavage kobs at 640 uM GlcN6P” value with glucosamine-6-phosphate [5] came out at 0.000178 ± 4.1e-05 s⁻¹. In addition, in the data set with glucosamine-6-phosphate [6], the “self-cleavage kobs at 2500 uM GlcN6P” value worked out at 9.42e-05 ± 2.9e-05 s⁻¹. Also, in the data set with glucosamine-6-phosphate [7], the “self-cleavage kobs at 10000 uM GlcN6P” value came out at 5.54e-05 ± 2.2e-05 s⁻¹.
On to C10G A12C, for which, in the data set with glucosamine-6-phosphate [1], the turnover number (kcat) turned out to be 3.86e-05 ± 1.4e-05 s⁻¹. The “self-cleavage kobs at 10000 uM GlcN6P” value with glucosamine-6-phosphate [7] was 2.24e-05 ± 9.4e-06 s⁻¹.
As for U49G C50G, the kcat with glucosamine-6-phosphate [1] was < 1e-05 s⁻¹. In addition, in the data set with glucosamine-6-phosphate [5], the “self-cleavage kobs at 640 uM GlcN6P” value was < 1e-05 s⁻¹.
On to G37U U57G, for which the kcat with glucosamine-6-phosphate [1] is < 1e-05 s⁻¹. The “self-cleavage kobs at 2500 uM GlcN6P” value with glucosamine-6-phosphate [6] is < 1e-05 s⁻¹.
For G41C U49G, the kcat with glucosamine-6-phosphate [1] was < 1e-05 s⁻¹. For the same variant, the “self-cleavage kobs at 160 uM GlcN6P” value in the data set with glucosamine-6-phosphate [4] is < 1e-05 s⁻¹.
For A53G U55G, the kcat with glucosamine-6-phosphate [1] turned out to be 0.0437 ± 0.021 s⁻¹. In the data set with glucosamine-6-phosphate [3], the “self-cleavage kobs at 40 uM GlcN6P” value was 0.0007 ± 8.8e-05 s⁻¹. Further, the “self-cleavage kobs at 160 uM GlcN6P” value with glucosamine-6-phosphate [4] came to 0.00323 ± 0.0008 s⁻¹. Also, the “self-cleavage kobs at 640 uM GlcN6P” value with glucosamine-6-phosphate [5] stood at 0.00936 ± 0.0021 s⁻¹. Also, the “self-cleavage kobs at 2500 uM GlcN6P” value with glucosamine-6-phosphate [6] worked out at 0.0152 ± 0.0045 s⁻¹. For the same variant, the “self-cleavage kobs at 10000 uM GlcN6P” value in the data set with glucosamine-6-phosphate [7] was 0.0622 ± 0.015 s⁻¹.
Take A12C G40C: the kcat in the data set with glucosamine-6-phosphate [1] worked out at 0.000942 ± 0.00014 s⁻¹. For the same variant, the KM with glucosamine-6-phosphate [2] turned out to be 2310 ± 620 µM. Also, in the data set with glucosamine-6-phosphate [3], the “self-cleavage kobs at 40 uM GlcN6P” value is 3.01e-05 ± 9.1e-06 s⁻¹. Besides, the “self-cleavage kobs at 160 uM GlcN6P” value with glucosamine-6-phosphate [4] is 5.51e-05 ± 8.5e-06 s⁻¹. The “self-cleavage kobs at 640 uM GlcN6P” value with glucosamine-6-phosphate [5] was determined as 0.0002 ± 6.3e-05 s⁻¹. Besides, the “self-cleavage kobs at 2500 uM GlcN6P” value in the data set with glucosamine-6-phosphate [6] was found to be 0.000666 ± 0.00012 s⁻¹. Also, the “self-cleavage kobs at 10000 uM GlcN6P” value in the data set with glucosamine-6-phosphate [7] was 0.000746 ± 6.8e-05 s⁻¹.
Regarding U47C C58A, in the data set with glucosamine-6-phosphate [1], the kcat turned out to be 0.00036 ± 6e-05 s⁻¹. For the same variant, the KM in the data set with glucosamine-6-phosphate [2] is 4240 ± 1300 µM. In addition, the “self-cleavage kobs at 640 uM GlcN6P” value with glucosamine-6-phosphate [5] stood at 3.95e-05 ± 1.1e-05 s⁻¹. In addition, the “self-cleavage kobs at 2500 uM GlcN6P” value with glucosamine-6-phosphate [6] was determined as 0.00016 ± 2.7e-05 s⁻¹. In the data set with glucosamine-6-phosphate [7], the “self-cleavage kobs at 10000 uM GlcN6P” value is 0.000244 ± 3.3e-05 s⁻¹.
For U55C C71A the same measures were 0.000398 ± 3.4e-05 s⁻¹, 3820 ± 600 µM, 5.32e-05 ± 6.9e-06 s⁻¹, 0.000174 ± 1.9e-05 s⁻¹ and 0.000283 ± 2.2e-05 s⁻¹.
Consider G40U C70U, for which, in the data set with glucosamine-6-phosphate [1], the kcat was determined as 0.00235 ± 0.00039 s⁻¹. In addition, in the data set with glucosamine-6-phosphate [2], the KM amounted to 2200 ± 510 µM. The “self-cleavage kobs at 40 uM GlcN6P” value in the data set with glucosamine-6-phosphate [3] came to 5.55e-05 ± 7.2e-06 s⁻¹. The “self-cleavage kobs at 160 uM GlcN6P” value with glucosamine-6-phosphate [4] stood at 0.000139 ± 1.4e-05 s⁻¹. For the same variant, the “self-cleavage kobs at 640 uM GlcN6P” value with glucosamine-6-phosphate [5] turned out to be 0.000566 ± 6.5e-05 s⁻¹. In the data set with glucosamine-6-phosphate [6], the “self-cleavage kobs at 2500 uM GlcN6P” value was determined as 0.00132 ± 0.00013 s⁻¹. Also, the “self-cleavage kobs at 10000 uM GlcN6P” value in the data set with glucosamine-6-phosphate [7] came to 0.00186 ± 0.0002 s⁻¹.
Turning to G40U A42C, in the data set with glucosamine-6-phosphate [1], the kcat is 1.23e-05 ± 9.1e-08 s⁻¹. Moreover, the KM in the data set with glucosamine-6-phosphate [2] amounted to 2280 ± 50 µM.
Regarding U65G G66A, the catalytic constant (kcat) with glucosamine-6-phosphate [1] amounted to 0.00234 ± 0.0003 s⁻¹. The KM in the data set with glucosamine-6-phosphate [2] turned out to be 2300 ± 450 µM. Besides, the “self-cleavage kobs at 40 uM GlcN6P” value with glucosamine-6-phosphate [3] was found to be 4.28e-05 ± 9.4e-06 s⁻¹. In addition, the “self-cleavage kobs at 160 uM GlcN6P” value in the data set with glucosamine-6-phosphate [4] turned out to be 0.000131 ± 2.3e-05 s⁻¹. In the data set with glucosamine-6-phosphate [5], the “self-cleavage kobs at 640 uM GlcN6P” value amounted to 0.000612 ± 0.0001 s⁻¹. Besides, the “self-cleavage kobs at 2500 uM GlcN6P” value in the data set with glucosamine-6-phosphate [6] was determined as 0.0013 ± 0.0002 s⁻¹. For the same variant, in the data set with glucosamine-6-phosphate [7], the “self-cleavage kobs at 10000 uM GlcN6P” value is 0.00183 ± 0.00025 s⁻¹.
